Measured values from doi:10.1101/2024.09.06.611644 (bioRxiv, 2024).

Biological target: wild-type AC fused to GFP (AC-GFP) (GFP moiety: Aequorea victoria …, UniProt P42212 = GFP)
Assay: two-hybrid

B1: CaM-V9A fusion expressed from pK1Cam-V9A or pK2Cam-V9A (VHH)
VHH: DVQLQESGGGSVQAGGSLRLSCAASGDTFSSYSMAWFRQAPGKECELVSNILRDGTTTYAGSVKGRFTISRDDAKNTVYLQMVNLKSEDTARYYCAADSGTQLGYVGAVGLSCLDYVMDYWGKGTQVTVSS
binding result: binds
